Paper doi:10.1101/2020.04.03.024018, “High-affinity agonist binding to C5aR results from a cooperative two-site binding mechanism” (bioRxiv, 2020)

How the values were obtained:
Conditions in all cases: both partners purified
[1] = target: T1, C5aRΔTyr mutant (Y11F and Y14F) (human, UniProt P21730 1-350, Y11F | Y14F); test: single-molecule force spectroscopy (FD-based AFM); ligand on the AFM tip (PEG27 linker, tris-NTA-Ni2+); receptor in DOPC/CHS liposomes adsorbed on mica; high loading rates only (10^5-10^7 pN/s); Friddle-Noy-de Yoreo fit, Kd calculated from dGbu; 20 mM HEPES, 300 mM NaCl, about 24 °C
T1 construct: human C5aR with the two sulfation-site tyrosines changed; A legend and the methods print the second mutation as F14F; also called C5aR-d2Y; source: HEK-293S GnTI- cells (BacMam), purified, reconstituted in DOPC/CHS liposomes
T1 sequence (looked up): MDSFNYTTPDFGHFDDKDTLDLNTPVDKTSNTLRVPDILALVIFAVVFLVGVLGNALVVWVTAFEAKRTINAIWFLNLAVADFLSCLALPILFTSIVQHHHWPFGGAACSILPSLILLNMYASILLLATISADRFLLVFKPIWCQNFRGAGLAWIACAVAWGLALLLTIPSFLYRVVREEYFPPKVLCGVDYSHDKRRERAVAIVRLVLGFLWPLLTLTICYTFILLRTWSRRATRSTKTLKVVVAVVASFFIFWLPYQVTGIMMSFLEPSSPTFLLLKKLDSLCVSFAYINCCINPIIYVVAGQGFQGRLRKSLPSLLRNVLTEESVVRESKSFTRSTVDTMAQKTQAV

[2] = target: T2, C5a anaphylatoxin chemotactic receptor 1 (C5aR), wild type (human, UniProt P21730 1-350, sulfonated tyrosines (sulfonation detected by anti-sulfotyrosine Western blot; eliminated by the Y11F and Y14F mutations)); test: as above
T2 construct: human G protein-coupled C5a receptor (C5aR), wild type; also called C5aR^WT; wtC5aR; source: HEK-293S GnTI- cells (BacMam), purified (Ni-NTA, anti-Flag M1 resin, SEC), reconstituted in DOPC/CHS liposomes; not shown: His8, C-terminal, kept
T2 sequence (looked up): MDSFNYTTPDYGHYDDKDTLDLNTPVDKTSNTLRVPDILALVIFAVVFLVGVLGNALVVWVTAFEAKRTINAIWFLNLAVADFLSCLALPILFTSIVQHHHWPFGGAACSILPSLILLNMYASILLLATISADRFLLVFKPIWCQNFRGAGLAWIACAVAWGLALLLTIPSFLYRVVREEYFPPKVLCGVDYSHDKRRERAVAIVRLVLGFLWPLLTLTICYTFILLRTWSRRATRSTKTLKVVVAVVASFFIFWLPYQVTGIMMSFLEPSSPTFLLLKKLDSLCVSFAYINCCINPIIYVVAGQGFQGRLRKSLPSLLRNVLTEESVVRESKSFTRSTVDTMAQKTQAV

[3] = target: T2, C5a anaphylatoxin chemotactic receptor …; test: single-molecule force spectroscopy (force-volume AFM + FD-based AFM); ligand on the AFM tip (PEG27 linker, tris-NTA-Ni2+); receptor in DOPC/CHS liposomes adsorbed on mica; low and high loading rates combined (10^2-10^7 pN/s); Friddle-Noy-de Yoreo fit, Kd calculated from dGbu; 20 mM HEPES, 300 mM NaCl, about 24 °C

B1: complement C5a anaphylatoxin (ligand, UniProt P01031 678-751, looked up)
chain: TLQKKIEEIAAKYKHSVVKKCCYDGACVNNDETCEQRAARISLGPRCIKAFTECCVVASQLRANISHKDMQLGR
notes: C5a anaphylatoxin, 74-aa glycoprotein, cut product of complement C5; C-terminal residue R74; numbers count on: the mature C5a; Held on the AFM tip through a PEG27 linker and tris-NTA-Ni2+; also called C5a ligand; endogenous C5a ligand
Kd [1]: ~20000 µM | Kd [2]: ~0.001 µM | Kd [3]: ~0.00609 µM
